# Laboratory results: PMC2709796
# B1: hexa-His-tagged fragment of sorLA including the YWTD-repeated β-propeller, the single EGF-domain and the 11 CR-domains (residues 728-1526) (domain or fragment)
# chain: YRKISGDTCSGGDVEARLEGELVPCPLAEENEFILYAVRKSIYRYDLASGATEQLPLTGLRAAVALDFDYEHNCLYWSDLALDVIQRLCLNGSTGQEVIINSGLETVEALAFEPLSQLLYWVDAGFKKIEVANPDGDFRLTIVNSSVLDRPRALVLVPQEGVMFWTDWGDLKPGIYRSNMDGSAAYHLVSEDVKWPNGISVDDQWIYWTDAYLECIERITFSGQQRSVILDNLPHPYAIAVFKNEIYWDDWSQLSIFRASKYSGSQMEILANQLTGLMDMKIFYKGKNTGSNACVPRPCSLLCLPKANNSRSCRCPEDVSSSVLPSGDLMCDCPQGYQLKNNTCVKQENTCLRNQYRCSNGNCINSIWWCDFDNDCGDMSDERNCPTTICDLDTQFRCQESGTCIPLSYKCDLEDDCGDNSDESHCEMHQCRSDEYNCSSGMCIRSSWVCDGDNDCRDWSDEANCTAIYHTCEASNFQCRNGHCIPQRWACDGDTDCQDGSDEDPVNCEKKCNGFRCPNGTCIPSSKHCDGLRDCSDGSDEQHCEPLCTHFMDFVCKNRQQCLFHSMVCDGIIQCRDGSDEDAAFAGCSQDPEFHKVCDEFGFQCQNGVCISLIWKCDGMDDCGDYSDEANCENPTEAPNCSRYFQFRCENGHCIPNRWKCDRENDCGDWSDEKDCGDSHILPFSTPGPSTCLPNYYRCSSGTCVMDTWVCDGYRDCADGSDEEACPLLANVTAASTPTQLGRCDRFEFECHQPKTCIPNWKRCDGHQDCQDGRDEANCPTHSTLTCMSREFQCEDGEA
# Target: human LRP purified from placenta (human)
# Experiment: SPR
binder,measurement,value
B1,Kd,36.5 nM
same,koff,0.00015 s⁻¹
same,kon,4110 M⁻¹ s⁻¹
